Assay [1] deals with HLA-A*02:01. Kind of assay: IEDB peptide-MHC binding, purified MHC/competitive/radioactivity; ≥ and ≤ were set here for values at or beyond the usual limits of such assays. The following applies: source organism: Homo sapiens.
Assay [2] deals with HLA-A*01:01. Kind of assay: IEDB peptide-MHC binding, purified MHC/direct/fluorescence; filed as Kd, often an IC50 or EC50 that approximates it; ≥ and ≤ were set here for values at or beyond the usual limits of such assays.
The target of assay [3] is HLA-A*02:01. The assay is described as above.
Assay [4] concerns the target HLA-A*03:01. Described as above.
Assay [5] concerns the target HLA-A*11:01. The assay is described as above.
Assay [6] concerns the target HLA-A*26:01. The assay is described as above.
The target in assay [7] is HLA-A*31:01. Described as above.
Assay [8] concerns the target HLA-A*68:02. The assay is described as above. The following applies: source organism: Rickettsia prowazekii.
For assay [9], the target named is HLA-A*69:01. The assay is described as above. Particulars: source organism: Rickettsia prowazekii.
Assay [10] concerns the target HLA-B*07:02. Described as above.
Assay [11] concerns the target HLA-B*08:02. Described as above. The following applies: source organism: Rickettsia typhi str. Wilmington.
For assay [12], the target named is HLA-B*08:03. Described as above. The following applies: source organism: Rickettsia typhi str. Wilmington.
For assay [13], the target named is HLA-B*15:01. Described as above.
Assay [14] has as its target HLA-B*15:09. The assay is described as above.
Assay [15] has as its target HLA-B*18:01. The assay is described as above.
The target of assay [16] is HLA-B*27:05. The assay is described as above.
Assay [17] deals with HLA-B*48:01. The assay is described as above.
Assay [18] has as its target HLA-B*57:01. The description is as above. Particulars: source organism: Rickettsia prowazekii.
In assay [19] the target is HLA-B*58:01. The description is as above.
The target of assay [20] is HLA-B*73:01. Described as above. Particulars: source organism: Rickettsia prowazekii.
For assay [21], the target named is HLA-C*06:02. Described as above. The following applies: source organism: Rickettsia prowazekii str. Madrid E.
Assay [22] has as its target HLA-C*15:02. The description is as above. Particulars: source organism: Rickettsia prowazekii str. Madrid E.
The target in assay [23] is HLA-A*30:01. The assay is described as follows: IEDB peptide-MHC binding, purified MHC/competitive/fluorescence; filed as Kd, often an IC50 or EC50 that approximates it; ≥ and ≤ were set here for values at or beyond the usual limits of such assays. Particulars: source organism: Rickettsia prowazekii str. Madrid E.
For assay [24], the target named is HLA-B*08:01. The description is as above. Particulars: source organism: Rickettsia prowazekii str. Madrid E.
Assay [25] addresses HLA-B*15:17. The description is as above.
Assay [26] concerns the target HLA-B*08:01. The assay is described as follows: IEDB peptide-MHC binding, purified MHC/direct/fluorescence; filed as Kd, often an IC50 or EC50 that approximates it; ≥ and ≤ were set here for values at or beyond the usual limits of such assays. The following applies: source organism: Brucella suis ATCC 23445.
The target in assay [27] is HLA-B*38:01. The description is as above. The following applies: source organism: Brucella suis ATCC 23445.
The target in assay [28] is HLA-B*40:01. The assay is described as above. The following applies: source organism: Brucella abortus.
Assay [29] concerns the target HLA-B*46:01. Described as above. The following applies: source organism: Brucella abortus.
In assay [30] the target is HLA-A*02:06. Kind of assay: IEDB peptide-MHC binding, purified MHC/competitive/fluorescence; filed as Kd, often an IC50 or EC50 that approximates it; ≥ and ≤ were set here for values at or beyond the usual limits of such assays. The following applies: source organism: Brucella melitensis bv. 1 str. Rev.1.
Assay [31] deals with HLA-A*69:01. The assay is described as above. Particulars: source organism: Brucella melitensis bv. 1 str. Rev.1.
For assay [32], the target named is HLA-B*57:01. The assay is described as above. The following applies: source organism: Brucella melitensis bv. 1 str. Rev.1.
The target in assay [33] is HLA-A*03:01. The description is as above. Particulars: source organism: Escherichia coli F11.
Assay [34] has as its target HLA-A*31:01. The assay is described as above. The following applies: source organism: Escherichia coli F11.
In assay [35] the target is HLA-A*32:15. The description is as above. Particulars: source organism: Escherichia coli F11.
Assay [36] deals with HLA-A*68:23. The assay is described as above. Particulars: source organism: Escherichia coli F11.
Assay [37] deals with HLA-B*15:42. The description is as above. The following applies: source organism: Escherichia coli F11.
Assay [38] deals with HLA-B*45:06. The description is as above. Particulars: source organism: Escherichia coli F11.
Assay [39] concerns the target HLA-B*83:01. The description is as above. Particulars: source organism: Escherichia coli F11.
Where [40] appears, read: source organism: Rickettsia prowazekii.
Setting [41] is: source organism: Rickettsia typhi str. Wilmington.
[42] abbreviates: source organism: Brucella abortus.
[43] abbreviates: source organism: Brucella suis ATCC 23445.

pIC50, pKd: −log10 of the molar value.

For the sequence ILTVILGVL, the negative logarithm of the IC50 (pIC50) in assay [1] was 6.42.

Regarding RRNRKALWL, the pKd in assay [2] (setting [40]), in [3] (setting [40]), in [4] (setting [40]), in [5] (setting [40]), in assay [6] (setting [41]) and in assay [7] (setting [40]) was no more than 4.70 throughout. The negative logarithm of the Kd (pKd) in assay [8] was no more than 4.70; in assay [9], no more than 4.70; in assay [10] (setting [40]), 5.16; in assay [11], no more than 4.70; in assay [12], no more than 4.70; in assay [13] (setting [40]) it was no more than 4.70. Further, the pKd was no more than 4.70 in [14] (setting [41]); no more than 4.70 in assay [15] (setting [40]); 7.33 in [16] (setting [40]); no more than 4.70 in assay [17] (setting [40]); no more than 4.70 in [18]; no more than 4.70 in assay [19] (setting [40]). The negative logarithm of the Kd (pKd) in assay [20] is 5.47; in assay [21], 7.51; in [22] it was no more than 4.70; in assay [23], no more than 4.70; in assay [24] it was 5.52; in assay [25] (source organism: Rickettsia prowazekii str. Madrid E), no more than 4.70.

Consider FSDVSHWWQ, for which the negative logarithm of the Kd (pKd) in assay [2] (setting [42]) was 6.39; in assay [3] (setting [42]) it was no more than 4.70; in assay [4] (setting [42]) it was no more than 4.70; in [5] (setting [42]) it was no more than 4.70; in assay [6] (setting [43]) it was no more than 4.70; in assay [7] (setting [42]), no more than 4.70. In addition, the pKd in [10] (setting [42]), in [26], in assay [13] (setting [42]), in assay [14] (setting [43]), in assay [15] (setting [42]) and in assay [16] (setting [42]) was no more than 4.70 in each case. Besides, the pKd was no more than 4.70 in assay [27]; no more than 4.70 in [28]; no more than 4.70 in assay [29]; no more than 4.70 in assay [17] (setting [42]); 5.68 in assay [19] (setting [42]); no more than 4.70 in assay [30]. Besides, the negative-log Kd (pKd) in [31], in assay [25] (source organism: Brucella melitensis bv. 1 str. Rev.1) and in assay [32] was no more than 4.70 in each case.

Turning to MTYSHHACR, the pKd is 7.11 in assay [33]; 7.74 in assay [34]; 6.08 in [35]; 9.70 in [36]; no more than 5.30 in assay [37]; no more than 5.30 in assay [38]. In addition, in assay [39], the pKd is no more than 5.30.

Values taken from the Immune Epitope Database (IEDB).
